This data set in a line: collision cross section of modified peptide (TIMS, N2, iRT-aligned); higher = larger / more extended gas-phase ion. The method in brief:
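Synthetic peptide pools (~100 fmol/µL in 2% acetonitrile/0.1% formic acid, iRT standard spiked 1:40) were separated on a 120-min nanoflow C18 gradient at 60 °C. They were analysed on a timsTOF Pro/HT (dda-PASEF, nitrogen, ~2.4 mbar) and identified with MaxQuant. 1/K0 was calibrated with three reference ions and aligned run-wise to the median iRT peptide deviation. Collision cross section came from the Mason-Schamp equation, averaging 1–3 technical replicates of the most abundant feature per charge state.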

[1] abbreviates: charge state: 2, modification: Nitro (Y).
The mark [2] stands for this setting: charge state: 3, modification: Methyl (R).
Setting [3] is: charge state: 2, modification: Propionyl.
[4] abbreviates: charge state: 2, modification: Methyl (R).
Where [5] appears, read: charge state: 2, modification: hydroxyisobutyryl.
Setting [6] is: charge state: 3, modification: hydroxyisobutyryl.
Setting [7] is: charge state: 2, modification: Formyl.
Where [8] appears, read: charge state: 3, modification: Formyl.
Where [9] appears, read: charge state: 2, modification: Acetyl (K).
The mark [10] stands for this setting: charge state: 3, modification: Acetyl (K).
The mark [11] stands for this setting: charge state: 2, modification: Crotonyl.
Setting [12] is: charge state: 3, modification: Crotonyl.
[13] abbreviates: charge state: 2, modification: Hydroxyproline.
The mark [14] stands for this setting: charge state: 2, modification: Biotin.
[15] abbreviates: charge state: 3, modification: Biotin.
Where [16] appears, read: charge state: 2, modification: Phospho (Y).
The mark [17] stands for this setting: charge state: 2, modification: HexNAc (ST).
[18] abbreviates: charge state: 3, modification: Propionyl.
The mark [19] stands for this setting: charge state: 2, modification: Methyl (K).
[20] abbreviates: charge state: 3, modification: Methyl (K).
The mark [21] stands for this setting: charge state: 2, modification: Trimethyl (K).
Setting [22] is: charge state: 3, modification: Trimethyl (K).
[23] abbreviates: charge state: 2, modification: GlyGly (K).

± gives the standard deviation.

With “VLDSGAPIKIPVGPETLGR [_VLDSGAPIK(Malonyl)IPVGPETLGR_]”, the collision cross section by setting is: (charge state: 2, modification: Malonyl) 468.64 ± 1.6 Å²; (charge state: 3, modification: Malonyl) 512.64 ± 6.2 Å².
For the substance PDTQYTGR [_PDTQY(Nitro (Y))TGR_], the collision cross section under setting [1] came out at 325.57 ± 0.55 Å².
With “GSYLGGYSAGRGIYSR [_GSYLGGYSAGR(Methyl (R))GIYSR_]”, the collision cross section under setting [2] is given as 481.98 Å².
Regarding GEYFGEK [_GEY(Nitro (Y))FGEK_], under setting [1], the collision cross section is 309.86 ± 0.71 Å².
Under setting [3], DFDTALKHYDK [_DFDTALK(Propionyl)HYDK_] registered a collision cross section of 403.21 Å².
With FRSGNYR [_FR(Methyl (R))SGNYR_], the collision cross section was determined as 333.09 ± 1 Å² under setting [4] and 399.51 ± 0.82 Å² under setting [2].
For “ANLEKAQAELVGTADEATR [_ANLEK(hydroxyisobutyryl)AQAELVGTADEATR_]”, the collision cross section under setting [5] is 473.77 ± 6.8 Å² and the collision cross section under setting [6] was found to be 579.16 ± 1.2 Å².
Turning to “SGNLTEDDKHNNAK [_SGNLTEDDK(Formyl)HNNAK_]”, the collision cross section came to 415.1 ± 1.8 Å² under setting [7] and 466.8 ± 1.3 Å² under setting [8].
As to “ITGKNQVTATK [_ITGK(Gluratylation)NQVTATK_]”, the collision cross section (charge state: 2, modification: Glutarylation) came out at 369.78 ± 0.66 Å².
As for “KYEEIDNAPEER [_K(Acetyl (K))YEEIDNAPEER_]”, the collision cross section turned out to be 408.98 ± 1.6 Å² under setting [9] and 493.17 ± 8.3 Å² under setting [10].
Take SSFAYKDQNENR [_SSFAYK(Crotonyl)DQNENR_]: the collision cross section reads like this: under setting [11], 403.46 ± 0.27 Å²; under setting [12], 461.83 ± 1.6 Å².
As for “SKHLQEQLNELK [_SK(Acetyl (K))HLQEQLNELK_]”, the collision cross section reads like this: under setting [9], 415.42 ± 1.7 Å²; under setting [10], 483.11 ± 1.6 Å².
For the substance “SGKFTQQDIDEAK [_SGK(hydroxyisobutyryl)FTQQDIDEAK_]”, the collision cross section under setting [5] amounted to 423.01 ± 2.3 Å².
GDAGEPGR [_GDAGEP(Hydroxyproline)GR_] registered a collision cross section under setting [13] of 292.85 ± 1.1 Å².
Turning to “VTLEVGKVIQQGR [_VTLEVGK(hydroxyisobutyryl)VIQQGR_]”, the collision cross section reads like this: under setting [5], 414.48 ± 0.55 Å²; under setting [6], 486.66 ± 1.9 Å².
On to “VTLEVGKVIQQGR [_VTLEVGK(Crotonyl)VIQQGR_]”, for which the collision cross section runs as follows: under setting [11], 412.55 ± 0.81 Å²; under setting [12], 473.48 ± 1.6 Å².
Substance VFIGNLNTLVVKK [_VFIGNLNTLVVK(Formyl)K_] displayed a collision cross section under setting [7] of 407.78 ± 0.74 Å².
For TEVLSPNSKVESK [_TEVLSPNSK(Biotin)VESK_], the collision cross section under setting [14] is on record as 425.18 ± 3.5 Å² and the collision cross section under setting [15] is on record as 487.32 ± 1.7 Å².
In the case of YLHDESGLNR [_Y(Phospho (Y))LHDESGLNR_], the collision cross section came out at 372.11 ± 0.77 Å² under setting [16] and 460.83 ± 0.1 Å² (charge state: 3, modification: Phospho (Y)).
ASPPLFQSR [_ASPPLFQS(HexNAc (ST))R_]: the collision cross section under setting [17] amounted to 363.62 ± 0.64 Å².
Turning to “TEVLSPNSKVESK [_TEVLSPNSK(Propionyl)VESK_]”, the collision cross section worked out at 413.62 ± 0.97 Å² under setting [3] and 453.73 Å² under setting [18].
In the case of ASEALLKQLK [_ASEALLK(Propionyl)QLK_], the collision cross section under setting [3] was determined as 375.9 ± 0.65 Å².
On to “ANLEKAQAELVGTADEATR [_ANLEK(Biotin)AQAELVGTADEATR_]”, for which, under setting [14], the collision cross section worked out at 492.92 Å².
“SDSGKPYYYNSQTK [_SDSGK(Methyl (K))PYYYNSQTK_]”: the collision cross section amounted to 422.21 Å² under setting [19] and 475.71 ± 2.9 Å² under setting [20].
With “DFSLTSSSQTPGATK [_DFS(HexNAc (ST))LTSSSQTPGATK_]”, the collision cross section under setting [17] was 426.98 ± 0.62 Å² and the collision cross section (charge state: 3, modification: HexNAc (ST)) amounted to 516.25 Å².
For “SDDESSQKDIK [_SDDESSQK(Trimethyl (K))DIK_]”, the collision cross section is given as 380.2 ± 1.7 Å² under setting [21] and 430.76 ± 2.7 Å² under setting [22].
In the case of “DAIHFYNKSLAEHR [_DAIHFYNK(Formyl)SLAEHR_]”, the collision cross section reads like this: under setting [7], 447.82 Å²; under setting [8], 498.82 ± 2.2 Å².
Under setting [23], ALLQAKASGK [_ALLQAK(GlyGly (K))ASGK_] had a collision cross section of 355.61 ± 0.57 Å².
For the substance “DKALPLEAEVAPVK [_DK(Crotonyl)ALPLEAEVAPVK_]”, the collision cross section under setting [11] came out at 411.34 ± 0.34 Å².
Regarding “ATVASSTQKFQDLGVK [_ATVASSTQK(Crotonyl)FQDLGVK_]”, the collision cross section runs as follows: under setting [11], 452.45 ± 0.83 Å²; under setting [12], 494.25 ± 1.6 Å².
Substance TTEETSKPK [_TTEETSK(Formyl)PK_] gave a collision cross section under setting [7] of 332.42 ± 4.9 Å².
As to LLEEEDSKLK [_LLEEEDSK(Methyl (K))LK_], the collision cross section came out at 382.93 ± 0.7 Å² under setting [19] and 439.97 ± 5.9 Å² under setting [20].
For DYILEGEPGK [_DY(Nitro (Y))ILEGEPGK_], the collision cross section under setting [1] came to 355.27 ± 0.17 Å².
As for “GRGVGSPEPGPTAPYLGRR [_GR(Citrullination (R))GVGSPEPGPTAPYLGRR_]”, the collision cross section (charge state: 3, modification: Citrullination (R)) came out at 497.66 ± 1.9 Å².
In turn, “SPSDSGYSYETIGKTTK [_SPSDSGYSYETIGK(Propionyl)TTK_]” had a collision cross section under setting [18] of 528.1 Å².
With “LQAAYAGDKADDIQK [_LQAAYAGDK(Biotin)ADDIQK_]”, the collision cross section is 449.09 ± 0.62 Å² under setting [14] and 511.95 ± 0.34 Å² under setting [15].
In turn, YVGESEANIR [_Y(Phospho (Y))VGESEANIR_] came in with a collision cross section under setting [16] of 370.09 ± 0.95 Å².
As for “FGTINIVHPKLGSYTK [_FGTINIVHPK(Crotonyl)LGSYTK_]”, the collision cross section under setting [12] was 553.88 ± 2 Å².
For the substance “IINEPTAAAIAYGLDKK [_IINEPTAAAIAYGLDK(Succinyl)K_]”, the collision cross section amounted to 465.22 ± 1.4 Å² (charge state: 2, modification: Succinyl) and 564.64 ± 0.073 Å² (charge state: 3, modification: Succinyl).
“DYSAPVNFISAGLKK [_DYSAPVNFISAGLK(Dimethyl (K))K_]”: the collision cross section by setting is: (charge state: 2, modification: Dimethyl (K)) 457.54 ± 1.7 Å²; (charge state: 3, modification: Dimethyl (K)) 517.49 ± 1.2 Å².
RGVGAGAIAK [_R(Methyl (R))GVGAGAIAK_]: the collision cross section under setting [4] is given as 328.76 ± 0.75 Å².
Turning to “VNIGQGSHPQKVK [_VNIGQGSHPQK(Crotonyl)VK_]”, the collision cross section is recorded as 430.6 ± 0.84 Å² under setting [11] and 487.14 ± 1.3 Å² under setting [12].
With “SPSDSGYSYETIGKTTK [_SPSDSGYSYETIGK(Trimethyl (K))TTK_]”, the collision cross section was found to be 455.09 ± 0.58 Å² under setting [21] and 517.28 ± 2.4 Å² under setting [22].
For the substance PSVSTKLISK [_PSVSTK(Crotonyl)LISK_], the collision cross section under setting [11] stood at 357.15 ± 0.8 Å².
The substance “PARGLYSR [_PAR(Citrullination (R))GLYSR_]” showed a collision cross section (charge state: 2, modification: Citrullination (R)) of 324.52 ± 2.2 Å².
INNFSADIKDSK [_INNFSADIK(Formyl)DSK_] yielded a collision cross section under setting [7] of 395.4 ± 0.83 Å².
Under setting [16], “CQGGQETQEYR [_CQGGQETQEY(Phospho (Y))R_]” returned a collision cross section of 381.17 Å².
Same read-out and setting: the value for VYSLFLDESR [_VY(Phospho (Y))SLFLDESR_] was 376.54 ± 1.2 Å².
Take DLYEPSHGAK [_DLY(Nitro (Y))EPSHGAK_]: the collision cross section runs as follows: under setting [1], 364.04 ± 0.94 Å²; (charge state: 3, modification: Nitro (Y)) 435.87 ± 1.2 Å².
Take VRLQTTLR [_VR(Methyl (R))LQTTLR_]: the collision cross section under setting [4] was 349.69 ± 0.95 Å² and the collision cross section under setting [2] was 439.94 ± 4.3 Å².
GERGVPGER [_GERGVP(Hydroxyproline)GER_] came in with a collision cross section under setting [13] of 328.27 ± 0.79 Å² and a collision cross section (charge state: 3, modification: Hydroxyproline) of 402.04 Å².
As to SGFGKFER [_SGFGK(Propionyl)FER_], the collision cross section under setting [3] is 336.62 ± 0.34 Å².
Consider TAIQAAGYPDK [_TAIQAAGY(Nitro (Y))PDK_], for which the collision cross section under setting [1] is on record as 354.49 ± 0.55 Å².
Take “DDSFLGKLGGTLAR [_DDSFLGK(Formyl)LGGTLAR_]”: the collision cross section under setting [7] was 408.49 ± 1.1 Å².
Regarding “TQAYQDQKPGTSGLR [_TQAYQDQK(hydroxyisobutyryl)PGTSGLR_]”, the collision cross section under setting [5] came out at 431.22 ± 0.52 Å² and the collision cross section under setting [6] is 484.99 ± 2.8 Å².
As to “KYEEIDNAPEER [_K(Methyl (K))YEEIDNAPEER_]”, the collision cross section worked out at 398.83 ± 1.1 Å² under setting [19] and 466.31 ± 3.7 Å² under setting [20].
As for “LQAAYAGDKADDIQK [_LQAAYAGDK(Acetyl (K))ADDIQK_]”, the collision cross section reads like this: under setting [9], 429.91 ± 2.1 Å²; under setting [10], 488.96 ± 0.48 Å².
IISSIEQKEENK [_IISSIEQK(Crotonyl)EENK_] gave a collision cross section under setting [11] of 407.53 ± 0.9 Å².
For “SLEEEGAAHSGKR [_SLEEEGAAHSGK(GlyGly (K))R_]”, the collision cross section reads like this: under setting [23], 418.89 ± 1.9 Å²; (charge state: 3, modification: GlyGly (K)) 473.02 ± 0.33 Å².

The record behind these values is the supplement of paper PMC10598134.
